Reference: article PMC6016464, “Folding and binding pathways of BH3-only proteins are encoded within their intrinsically disordered sequence, not templated by partner proteins” (The Journal of Biological Chemistry, 2018)
Read-outs that look alike come from different tables or passages of the source. Where no end group is shown, it is not given here. The star is where a group is joined. TAMRA = 5-carboxytetramethylrhodamine, CN(C)c1ccc2c(-c3ccc(C(=O)*)cc3C(=O)[O-])c3ccc(=[N+](C)C)cc-3oc2c1

T1: A1 protein (mouse, residues 1-152, P104K C113S, used as wild type) (mouse)
T1 sequence (Q07440 1-152 with P104K C113S, looked up): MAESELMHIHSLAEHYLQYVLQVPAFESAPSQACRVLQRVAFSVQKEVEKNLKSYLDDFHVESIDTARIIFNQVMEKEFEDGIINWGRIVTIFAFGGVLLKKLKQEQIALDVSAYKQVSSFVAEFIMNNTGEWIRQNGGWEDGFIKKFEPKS

T2: MCL-1 (mouse, residues 152-308) (mouse)
T2 construct: remnant of thrombin cleavage at the N-terminus of MCL-1; MCL-1, mouse, residues 152-308, UniProt P97287; source: E. coli C41 pLysS, purified (Ni2+ agarose, thrombin cleavage, ion exchange, Superdex G75 gel filtration); not shown: His6, N-terminal, cleaved
T2 chain: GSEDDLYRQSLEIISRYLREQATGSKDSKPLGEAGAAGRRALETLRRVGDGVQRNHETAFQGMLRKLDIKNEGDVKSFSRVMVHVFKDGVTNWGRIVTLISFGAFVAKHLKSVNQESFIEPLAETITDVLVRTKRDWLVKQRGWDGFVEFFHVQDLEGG


What was measured:
[1] = biological target: T1, A1 protein (mouse, residues 1-152, P104K C113S, used as wild type) (mouse); experiment: stopped-flow fluorescence kinetics; association; TAMRA-labelled peptide with folded partner at least 10-fold higher (pseudo-first-order); kon from the gradient of kobs versus partner concentration; 25 °C; 50 mM sodium phosphate, 0.05% (v/v) Tween 20, pH 7.0
[2] = biological target: T1, A1 protein (mouse, residues 1-152, P104K C113S, used as wild type) (mouse); experiment: stopped-flow fluorescence kinetics + other: fluorescence dissociation kinetics with competitor; Kd calculated as the ratio koff/kon of the kinetic rate constants; 25 °C; 50 mM sodium phosphate, 0.05% (v/v) Tween 20, pH 7.0
[3] = biological target: T1, A1 protein (mouse, residues 1-152, P104K C113S, used as wild type) (mouse); experiment: fluorescence polarisation; equilibrium binding by fluorescence anisotropy of the TAMRA-labelled peptide against partner protein concentration; anisotropy adjusted for the change in fluorescence intensity; 25 °C; 50 mM sodium phosphate, 0.05% (v/v) Tween 20, pH 7.0
[4] = biological target: T1, A1 protein (mouse, residues 1-152, P104K C113S, used as wild type) (mouse); experiment: fluorescence dissociation kinetics with competitor; dissociation; preformed complex of TAMRA-labelled peptide and partner protein mixed with excess unlabeled PUMA peptide as competitor; stopped-flow or Cary Eclipse spectrophotometer; 25 °C; 50 mM sodium phosphate, 0.05% (v/v) Tween 20, pH …
[5] = biological target: T3, MCL-1 (mouse, residues 152-308) (mouse, UniProt P97287 152-308); experiment: dissociation kinetics by competition (fluorescence); preformed complex of TAMRA peptide and partner protein mixed with various concentrations of unlabeled PUMA peptide as competitor; stopped-flow or spectrophotometer; 25 °C; 50 mM sodium phosphate, 0.05% (v/v) Tween 20, pH 7.0; conditions: both partners purified
T3 construct: MCL-1, mouse, residues 152-308, UniProt P97287; source: recombinantly produced, purified (protocol in the supplemental Experimental Procedures)

[6] = biological target: T2, MCL-1 (mouse, residues 152-308); experiment: other fluorescence titration; equilibrium binding curve of TAMRA-labelled peptide, fluorescence (A.U.) against MCL-1 concentration; 50 mM sodium phosphate, 0.05% (v/v) Tween 20, pH 7.0; conditions: both partners purified
[7] = biological target: T1, A1 protein (mouse, residues 1-152, P104K C113S, used as wild type) (mouse); experiment: stopped-flow fluorescence kinetics; association; TAMRA-labelled peptide with folded partner at least 10-fold higher (pseudo-first-order); kon from the gradient of kobs versus partner concentration; 25 °C; 50 mM sodium phosphate, 0.05% (v/v) Tween 20, pH 7.0; remark: listed apart in the source
[8] = biological target: T2, MCL-1 (mouse, residues 152-308); experiment: stopped-flow fluorescence kinetics; association; TAMRA-labelled peptide with folded partner at least 10-fold higher (pseudo-first-order); kon from the gradient of kobs versus partner concentration; 25 °C; 50 mM sodium phosphate, 0.05% (v/v) Tween 20, pH 7.0; conditions: both partners purified
Procedure, shortened: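 The association rate constant is the slope of observed rate versus partner concentration, from stopped-flow fluorescence of TAMRA-labelled peptide with mouse MCL-1 (residues 152–308). The partner was in at least 10-fold excess, in 50 mM sodium phosphate, 0.05% (v/v) Tween 20, pH 7.0, at 25 °C. Excitation was at 555 nm with emission above 570 nm, and each observed rate came from a single-exponential fit.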

[9] = biological target: T2, MCL-1 (mouse, residues 152-308); experiment: stopped-flow fluorescence kinetics + other: fluorescence dissociation kinetics with competitor; Kd calculated as the ratio koff/kon of the kinetic rate constants; 25 °C; 50 mM sodium phosphate, 0.05% (v/v) Tween 20, pH 7.0; conditions: both partners purified
[10] = biological target: T2, MCL-1 (mouse, residues 152-308); experiment: fluorescence dissociation kinetics with competitor; dissociation; preformed complex of TAMRA-labelled peptide and partner protein mixed with excess unlabeled PUMA peptide as competitor; stopped-flow or Cary Eclipse spectrophotometer; 25 °C; 50 mM sodium phosphate, 0.05% (v/v) Tween 20, pH 7.0; conditions: both partners purified
Procedure, shortened: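 In buffer of 50 mM sodium phosphate with 0.05% (v/v) Tween 20 at pH 7.0 and 25 °C, a preformed complex of mouse MCL-1 (residues 152–308) and TAMRA-labelled peptide was mixed with varying amounts of unlabelled competitor peptide. Fluorescence changes, recorded by stopped-flow for kobs > 0.03 s^−1 or by Cary Eclipse for kobs < 0.03 s^−1, were fit to single exponentials. The dissociation rate constant is the average of the concentration-independent kobs values reached with sufficient competitor excess.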

[11] = biological target: T1, A1 protein (mouse, residues 1-152, P104K C113S, used as wild type) (mouse); experiment: fluorescence dissociation kinetics with competitor; dissociation; preformed complex of TAMRA-labelled peptide and partner protein mixed with excess unlabeled PUMA peptide as competitor; stopped-flow or Cary Eclipse spectrophotometer; 25 °C; 50 mM sodium phosphate, 0.05% (v/v) Tween 20, pH …; remark: listed apart in the source
[12] = biological target: T2, MCL-1 (mouse, residues 152-308); experiment: fluorescence polarisation; equilibrium binding by fluorescence anisotropy of the TAMRA-labelled peptide against partner protein concentration; anisotropy adjusted for the change in fluorescence intensity; 25 °C; 50 mM sodium phosphate, 0.05% (v/v) Tween 20, pH 7.0; conditions: both partners purified

Binder	kon [1] [M⁻¹ s⁻¹]	Kd [2] [nM]	Kd [3] [nM]	koff [4] [s⁻¹]	binding result [5]	Kd [6] [nM]	kon [7] [M⁻¹ s⁻¹]	kon [8] [M⁻¹ s⁻¹]	Kd [9] [nM]	koff [10] [s⁻¹]	koff [11] [s⁻¹]	Kd [12] [nM]
{TAMRA}-SESQEAIIHNIARHLAQIGDEMDHNIQPTLVRQLA (peptide, UniProt P70444 76-110, looked up, BID, mouse, residues 76-110, UniProt P70444; source: synthetic peptide (Biomatik)) [BID E81A peptide, TAMRA-labelled]	–	0.02	–	–	–	–	1.07e+07	6.5e+06	0.55	0.0036	0.000213	–
{TAMRA}-SESQEGIIHNIARHLAQIGDEMDHNIQPTLVRQLA (peptide, UniProt P70444 76-110, looked up, BID, mouse, residues 76-110, UniProt P70444; source: synthetic peptide (Biomatik)) [BID E81G peptide, TAMRA-labelled]	–	0.047	–	–	–	–	9.6e+06	4.8e+06	1.6	0.008	0.000454	–
{TAMRA}-SESQEEIIHNIARHLAQIGDEMDHNAQPTLVRQLA (peptide, UniProt P70444 76-110, looked up, BID, mouse, residues 76-110, UniProt P70444; source: synthetic peptide (Biomatik)) [BID I101A peptide, TAMRA-labelled]	–	0.022	–	–	–	–	8.6e+06	8.2e+06	0.3	0.0025	0.0002	–
{TAMRA}-SESQEEIAHNIARHLAQIGDEMDHNIQPTLVRQLA (peptide, UniProt P70444 76-110, looked up, BID, mouse, residues 76-110, UniProt P70444; source: synthetic peptide (Biomatik)) [BID I83A peptide, TAMRA-labelled]	–	0.29	–	–	–	–	7e+06	8.6e+06	1.7	0.014	0.002	–
{TAMRA}-SESQEEIIHNIARHAAQIGDEMDHNIQPTLVRQLA (peptide, UniProt P70444 76-110, looked up, BID, mouse, residues 76-110, UniProt P70444; source: synthetic peptide (Biomatik)) [BID L90A peptide, TAMRA-labelled]	3.1e+06	210	360	0.66	–	–	–	2.1e+06	610	1.3	–	1200

Next, values leading:

kon [1] [M⁻¹ s⁻¹]	Kd [2] [nM]	Kd [3] [nM]	koff [4] [s⁻¹]	binding result [5]	Kd [6] [nM]	kon [7] [M⁻¹ s⁻¹]	kon [8] [M⁻¹ s⁻¹]	Kd [9] [nM]	koff [10] [s⁻¹]	koff [11] [s⁻¹]	Kd [12] [nM]	Binder
1.67e+06	735	710	1.23	–	–	–	–	–	–	–	–	{TAMRA}-RVEEEEWAREIGAQARRAADDLNAQYERRRQEEQH [PUMA L141A peptide (on the M144A wild type), TAMRA-labelled]
4.9e+06	7.1	5.65	0.0348	–	–	–	–	–	–	–	–	{TAMRA}-RVEEEEWAREIGAQLRRAADDANAQYERRRQEEQH [PUMA L148A peptide (on the M144A wild type), TAMRA-labelled]
–	–	–	–	binds	–	–	–	–	–	–	–	{TAMRA}-SESQEEIIHNIARHLAQIGDEMDHNIQPTLVRQLA (peptide, UniProt P70444 76-110, looked up, BID, mouse, residues 76-110, UniProt P70444; source: synthetic peptide (synthesized by Biomatik)) [BID peptide (mouse, residues 76-110), N-terminal TAMRA]
2.78e+06	1.4	–	0.0039	–	1.7 ± 0.2	–	–	–	–	–	–	{TAMRA}-RVEEEEWAREIGGQLRRAADDLNGQYERRRQEEQH (peptide, UniProt Q99ML1 127-161, looked up, PUMA, mouse, residues 127-161, UniProt Q99ML1; Double mutant; also called A150G (A139G); source: synthetic peptide (Biomatik)) [PUMA (A139G A150G) peptide (on the M144A wild type), TAMRA-labelled]
